B1: EGF: EGF (mouse) (protein, UniProt P01132 29-1217, looked up)
Pro-epidermal growth factor: WQTGNCQPGPLERSERSGTCAGPAPFLVFSQGKSISRIDPDGTNHQQLVVDAGISADMDIHYKKERLYWVDVERQVLLRVFLNGTGLEKVCNVERKVSGLAIDWIDDEVLWVDQQNGVITVTDMTGKNSRVLLSSLKHPSNIAVDPIERLMFWSSEVTGSLHRAHLKGVDVKTLLETGGISVLTLDVLDKRLFWVQDSGEGSHAYIHSCDYEGGSVRLIRHQARHSLSSMAFFGDRIFYSVLKSKAIWIANKHTGKDTVRINLHPSFVTPGKLMVVHPRAQPRTEDAAKDPDPELLKQRGRPCRFGLCERDPKSHSSACAEGYTLSRDRKYCEDVNECATQNHGCTLGCENTPGSYHCTCPTGFVLLPDGKQCHELVSCPGNVSKCSHGCVLTSDGPRCICPAGSVLGRDGKTCTGCSSPDNGGCSQICLPLRPGSWECDCFPGYDLQSDRKSCAASGPQPLLLFANSQDIRHMHFDGTDYKVLLSRQMGMVFALDYDPVESKIYFAQTALKWIERANMDGSQRERLITEGVDTLEGLALDWIGRRIYWTDSGKSVVGGSDLSGKHHRIIIQERISRPRGIAVHPRARRLFWTDVGMSPRIESASLQGSDRVLIASSNLLEPSGITIDYLTDTLYWCDTKRSVIEMANLDGSKRRRLIQNDVGHPFSLAVFEDHLWVSDWAIPSVIRVNKRTGQNRVRLQGSMLKPSSLVVVHPLAKPGADPCLYRNGGCEHICQESLGTARCLCREGFVKAWDGKMCLPQDYPILSGENADLSKEVTSLSNSTQAEVPDDDGTESSTLVAEIMVSGMNYEDDCGPGGCGSHARCVSDGETAECQCLKGFARDGNLCSDIDECVLARSDCPSTSSRCINTEGGYVCRCSEGYEGDGISCFDIDECQRGAHNCGENAACTNTEGGYNCTCAGRPSSPGLSCPDSTAPSLLGEDGHHLDRNSYPGCPSSYDGYCLNGGVCMHIESLDSYTCNCVIGYSGDRCQTRDLRWWELRHAGYGQKHDIMVVAVCMVALVLLLVLGMWGTYYYRTRKQLSNPPKNPCDEPSGSVSSSGPNSSSGAAVASCPQPWFVVLEKHQDPKNGSLPADGTNGAVVDAGLSPSLQLGSVHLTSWRQKPHIDGMGTGQSCWIPPSSDRGPQEIEGNSHLPSYRPVGPEKLHSLQSANGSCHERAPDLPRQTEPVQ
modifications: Pro-epidermal growth factor
B2: IFNc: IFNc (rat, rec.) (protein, UniProt P01581 23-156, looked up)
Interferon gamma: QGTLIESLESLKNYFNSSSMDAMEGKSLLLDIWRNWQKDGNTKILESQIISFYLRLFEVLKDNQAISNNISVIESHLITNFFSNSKAKKDAFMSIAKFEVNNPQIQHKAVNELIRVIHQLSPESSLRKRKRSRC
B3: IL-6: IL-6 (mouse, rec.) (protein, UniProt P08505 25-211, looked up)
Interleukin-6: FPTSQVRRGDFTEDTTPNRPVYTTSQVGGLITHVLWEIVEMRKELCNGNSDCMNNDDALAENNLKLPEIQRNDGCYQTGYNQEICLLKISSGLLEYHSYLEYMKNNLKDNKKDKARVLQRDTETLIHIFNQEVKDLHKIVLPTPISNALLTDKLESQKEWLRTKTIQFILKSLEEFLKVTLRSTRQT
B4: NT-3: neurotrophic molecule of the NGF-BDNF gene family, produced by transfected Cos-cells (protein, UniProt P20783 139-257, looked up)
Neurotrophin-3: YAEHKSHRGEYSVCDSESLWVTDKSSAIDIRGHQVTVLGEIKTGNSPVKQYFYETRCKEARPVKNGCRGIDDKHWNSQCKTSQTYVRALTSENNKLVGWRWIRIDTSCVCALSRKIGRT
B5: bNGF: bNGF (mouse) (protein, UniProt P01139 122-241, looked up)
Beta-nerve growth factor: SSTHPVFHMGEFSVCDSVSVWVGDKTTATDIKGKEVTVLAEVNINNSVFRQYFFETKCRASNPVESGCRGIDSKHWNSYCTTTHTFVKALTTDEKQAAWRFIRIDTACVCVLSRKATRRG
modifications: Beta-nerve growth factor

System: chick embryonic spinal motorneurons
Test: Survival of chick embryonic spinal motorneurons in culture
Assay type: cell-based
Design: key to Survival: −: not significantly different from control (survival: 8.3 ± 3.8%, mean ± SD, n = 18); ±: about 15-20% (statistically significant from each blank control, p < 0.01); + +: about 35-55%; + ++: about 55-75%
Details: for Survival: after 3 days in culture, one concentration per molecule, Table VI, CNTF rat, rec.; for survival effect on motoneurons: supramaximal concentrations, NT-3 produced by transfected Cos-cells
Procedure: Motorneuron columns were dissected under a stereomicroscope from the lumbar part of the spinal cord of chick embryos on the 6th day of embryonic development and stored in cold calcium and magnesium-free Hanks balanced salt solution supplemented with glucose (4 g/l) (HBSS). The tissues were washed with HBSS and treated with 0.03% trypsin in HBSS at 37° C. for 20 min with gentle shaking, rinsed with cold HBSS and triturated mildly in 3 steps of 8-passage agitation in 1 ml of cold 0.1% soybean trypsin inhibitor (Sigma) in HBSS through a fire-polished siliconized Pasteur pipette. Each supernatant cell suspension was filtered through 50 μm-Nylon mesh, pooled and layered onto 4 ml of cold 6.8% metrizamide (Fluka) in HBSS-25 mM HEPES (pH7.4) in a 12 ml-siliconized conical glass tube. The tube was centrifuged at 400 g for 15 min at 4° C. and the intermediate layer (0.5 ml) was collected into another siliconized tube containing 6.5 ml of cold culture medium (a mixture of glucose (4 g/l)-supplemented Leibovitz's L-15 medium (Gibco), 0.15 M sodium bicarbonate, heat-inactivated and filtered horse serum and penicillin G (10^5 units/ml) at the ratio of 75:15:10:0.1, freshly prepared and buffered with 5% CO2.) After centrifugation at 100×g for 7 min at 4° C., the supernatant was removed and the cells were gently resuspended in culture medium and plated in Greiner 4-well culture dishes (well diameter, 10 mm; C. A. Greiner und Sohne GmbH, Nurtingen, West Germany) at 1000-2000 cells/well. The dishes had been precoated with poly-DL-ornithine (Sigma, 0.5 mg in 0.15 M sodium borate buffer (pH 8.3) overnight at 4° C., rinsed twice with phosphate-buffered saline (PBS) and subsequently coated with laminin (Gibco; 10 μg/ml in the serum-depleted culture medium) and placed in a 5% CO2-incubator until cell plating (5-6 hrs). Cells were incubated at 37° C. in a humidified 5% CO2- and 95% air-incubator. Samples were added one hr after plating and the culture medium changed after 24 hrs and 72 hrs. The initial cell numbers were counted 3 hrs after plating.
In some experiments motor neurons were retrogradely labeled with a fluorescent dye in vivo before cell preparation (U. Dohrman et al., 1986, Dev. Biol. 118:209-221) to identify the motor neuron cell population. A small hole was made in the shell of eggs which had been incubated for 5 days. Small pieces of rhodamine isothiocyanate crystals (Sigma) were inserted at two or three places into each hind limb thigh and the egg hole was sealed with a cellophane tape. The eggs were incubated for another 24 hrs. Some of the operated embryos were then processed for frozen sections after formaldehyde fixation. […] The other embryos were used for cell preparation using the method described above (18.1.1). After 5 hrs in culture cells were rinsed with warm HBSS, fixed with 4% formaldehyde in PBS at room temperature for 20 min, rinsed with PBS and then mounted in glycerol-PBS (1:1) with glass coverslips. Of the total cells approximately 83% were labeled and identified as motorneurons (FIG. 42.) Most of these labeled motorneurons were large cells and the rest were intermediate-size cells. No small cells were labeled. On the other hand, in experiments in which cells were not labeled with a fluorescent dye about 70% of the total cells were large phase-bright cells with round cell somas, about 20% were intermediate-size neurons (most of them may be motorneurons) and about 10% were small immature neurons (they have neuron-like processes with growth cones but have phase-dark semi-flat cell somas). Non-neuronal cells were either not present or accounted for less than 2%. Taken together, one may conclude that at least 83% of the cells are motorneurons while the remainder consists of non-labeled motorneurons, a small number of unidentified intermediate-size neurons and about 10% immature small neurons. […]

Molecule	Survival	survival effect on motoneurons
B1	−	no discernable effect
B2	−	no discernable effect
B3	−	no discernable effect
B4	−	did not appear to have a survival effect
B5	−	no discernable effect

Reference: patent publication US6602687B1, “DNA encoding human ciliary neurotrophic factor and method for producing the protein encoded thereby” (Regeneron Pharmaceuticals, Inc., priority 1989, dated 2003)
